The record followed here is EP4613280A1 (Plantibodies, dated 2025).

In the assay the target is T1, murine PD-1 receptor (mouse, UniProt Q02242 25-288).
T1 construct: Endogenous protein in tissue lysates, detected as a 50 kDa band on a western blot; also called mouse PD-1; mouse PD-1 receptor
T1 sequence (looked up): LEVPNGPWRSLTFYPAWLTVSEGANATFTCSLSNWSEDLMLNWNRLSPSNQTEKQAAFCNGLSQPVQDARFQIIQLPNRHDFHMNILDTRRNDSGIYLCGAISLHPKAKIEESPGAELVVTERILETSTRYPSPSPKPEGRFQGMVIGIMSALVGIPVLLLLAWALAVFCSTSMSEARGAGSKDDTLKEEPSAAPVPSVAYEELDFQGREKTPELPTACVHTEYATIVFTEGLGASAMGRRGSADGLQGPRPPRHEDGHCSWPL
Briefly: western blot of mouse liver and lung lysates probed with nivolumab.

B1: human recombinant Nivolumab (Thermofischer MA5-41974) (antibody, human IgG4 S228P, kappa, V domains shown)
VH: QVQLVESGGGVVQPGRSLRLDCKASGITFSNSGMHWVRQAPGKGLEWVAVIWYDGSKRYYADSVKGRFTISRDNSKNTLFLQMNSLRAEDTAVYYCATNDDYWGQGTLVTVSS
VL: EIVLTQSPATLSLSPGERATLSCRASQSVSSYLAWYQQKPGQAPRLLIYDASNRATGIPARFSGSGSGTDFTLTISSLEPEDFAVYYCQQSSNWPRTFGQGTKVEIKR
notes: Bought reagent, described as a fully humanized monoclonal antibody produced in mammalian cells such as HEK293; also called human Nivolumab; mammalian cell produced nivolumab (anti-PD1)
Consider B1, for which the binding result is listed as “binds”.
